# Measurements: the supplement of paper PMC7877785
# ± gives the uncertainty stated by the source.
# Assay: self-splicing fitness, log relative to wild type (ln ratio); higher = more splicing; Tetrahymena group I intron in knt gene, E. coli kanamycin selection, DiMSum; sequences stand for … in CUCUCU…GGAGGGAAAAGUUAUCAGGCAUGCACCUGGUAGCUAGUCUUUAAACCAAUAGAUUGCAUCGGUUUAAAAGGCAAGACCGUCAAAUUGCGGGAAAGGGGUCAACAGCCGUUCAGUACCAAGUCUCAGGGGAAACUUUGAGAUGGCCUUGCAAAGGGUAUGGUAAUAAGCUGACGGACAUGGUCCUAACCACGCAGCCAAGUCCUAAGUCAACAGAUCUUCUGUUGAUAUGGAUGCAGUUCACAGACUAAAUGUCGGUCGGGGAAGAUGUAUUCUUCUCAUAAGAUAUAGUCGGACCUCUCCUUAAUGGGAGCUAGCGGAUGAAGUGAUGCAACACUGGAGCCGCUGGGAACUAAUUUGUAUGCGAAAGUAUAUUGAUUAGUUUUGGAGUACUCGUGGUCG
# Procedure, shortened: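 DiMSum derived fitness as the error-weighted combination of fold changes across replicates, kanamycin versus no kanamycin, normalised to wild type. E. coli BL21(DE3) held the library, which randomised all eight P1ex-region intron nucleotides within the knt kanamycin-resistance gene on pET-22b(+). Six replicate transformations grew overnight at 37°C or 30°C on LB agar with or without 25 μg/mL kanamycin, also containing 100 μg/mL carbenicillin, 50 μM IPTG and 0.2% rhamnose, and pooled colonies were amplicon-sequenced on an Illumina HiSeq 2500.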
Sequence,self-splicing fitness (ln) (30 °C),self-splicing fitness (ln) (37 °C)
GUUCAGCAAUAUUACGUGAA,-1.32 ± 0.087,-0.784 ± 0.11
GUUCAGCAAUAUUACGUUCU,-0.734 ± 0.073,-0.74 ± 0.087
GUUCAGCAAUAUUACGUUGC,-3.13 ± 0.12,-1.7 ± 0.11
GUUGAGCAAUAUUACGAAUU,-3.8 ± 0.34,-1.24 ± 0.34
GUUGAGCAAUAUUACGACAG,-4.09 ± 0.36,-2.49 ± 0.28
GUUGAGCAAUAUUACGACGU,-0.544 ± 0.11,-0.345 ± 0.12
GUUGAGCAAUAUUACGAGGU,-3.2 ± 0.28,–
GUUGAGCAAUAUUACGAUGG,-3.31 ± 0.47,-2.7 ± 0.29
GUUGAGCAAUAUUACGAUGU,-2.43 ± 0.21,-1.03 ± 0.18
GUUGAGCAAUAUUACGGACG,–,-1.42 ± 0.29
GUUGAGCAAUAUUACGGAUA,-0.148 ± 0.24,-1.65 ± 0.45
GUUGAGCAAUAUUACGGCUU,-2.84 ± 0.28,-1.25 ± 0.37
GUUGAGCAAUAUUACGGGUU,-3.57 ± 0.27,-2 ± 0.21
GUUGAGCAAUAUUACGGUGG,-2.81 ± 0.33,-2.81 ± 0.48
GUUGAGCAAUAUUACGUCUG,-2.34 ± 0.44,-2.04 ± 0.4
GUUGAGCAAUAUUACGUUAG,-4.58 ± 0.41,-2.82 ± 0.43
GUUGAGCAAUAUUACGUUGA,-3.13 ± 0.29,-2.9 ± 0.33
GUUUAGCAAUAUUACGAAUA,-1.58 ± 0.43,-0.203 ± 0.3
GUUUAGCAAUAUUACGACAU,-0.224 ± 0.014,0.063 ± 0.033
GUUUAGCAAUAUUACGCAGU,-2.92 ± 0.17,-2.05 ± 0.22
GUUUAGCAAUAUUACGCGAU,-3.12 ± 0.4,-2.42 ± 0.42
GUUUAGCAAUAUUACGCGCU,-1.52 ± 0.29,-0.397 ± 0.44
GUUUAGCAAUAUUACGCGUA,-0.947 ± 0.14,-0.606 ± 0.15
GUUUAGCAAUAUUACGGUAU,-2.05 ± 0.14,0.286 ± 0.15

Sequence,self-splicing fitness (ln) (30 °C),self-splicing fitness (ln) (37 °C)
GUUUAGCAAUAUUACGGUCU,-1.44 ± 0.12,-1.05 ± 0.13
GUUUAGCAAUAUUACGGUGU,-1.95 ± 0.14,-1.38 ± 0.13
GUUUAGCAAUAUUACGUAAU,-1.15 ± 0.1,0.127 ± 0.13
GUUUAGCAAUAUUACGUGAG,-0.583 ± 0.062,-0.124 ± 0.08
GUUUAGCAAUAUUACGUGCG,-0.649 ± 0.11,-0.5 ± 0.11
GUUUAGCAAUAUUACGUGUC,-0.806 ± 0.17,-1.76 ± 0.17
GUUUAGCAAUAUUACGUUCA,-0.239 ± 0.15,-0.156 ± 0.13
UAAAAGCAAUAUUACGAAGG,-2.61 ± 0.21,-1.6 ± 0.23
UAAAAGCAAUAUUACGACAG,-0.555 ± 0.057,-0.173 ± 0.074
UAAAAGCAAUAUUACGAGAA,-2.18 ± 0.24,-0.995 ± 0.16
UAAAAGCAAUAUUACGAGAG,-3.35 ± 0.19,-1.6 ± 0.13
UAAAAGCAAUAUUACGAGUU,-2.99 ± 0.16,-1.91 ± 0.14
UAAAAGCAAUAUUACGAUGA,-0.245 ± 0.085,0.0881 ± 0.087
UAAAAGCAAUAUUACGAUGG,-0.953 ± 0.087,-0.592 ± 0.11
UAAAAGCAAUAUUACGCACC,-2.48 ± 0.11,-1.49 ± 0.12
UAAAAGCAAUAUUACGCACG,-0.983 ± 0.079,-0.0988 ± 0.1
UAAAAGCAAUAUUACGCAGA,-2.11 ± 0.093,-1.17 ± 0.086
UAAAAGCAAUAUUACGCGUG,-0.88 ± 0.049,-0.0179 ± 0.066
UAAAAGCAAUAUUACGCUAA,-1.86 ± 0.14,-0.863 ± 0.13
UAAAAGCAAUAUUACGCUAC,-3.07 ± 0.24,–
UAAAAGCAAUAUUACGGACA,-0.712 ± 0.082,0.302 ± 0.11
UAAAAGCAAUAUUACGGCCU,-0.961 ± 0.1,-0.4 ± 0.12
UAAAAGCAAUAUUACGGGAC,-3.16 ± 0.13,-2.47 ± 0.19
UAAAAGCAAUAUUACGGGUA,-0.918 ± 0.09,-0.192 ± 0.095
